Experimental data from article PMC3832242.

Molecular target: linked SSB dimer with the D. radiodurans linker (SSB-LD-Drl) (E. coli | D. radiodurans)
Assay: AUC

- stoichiometry N: 2
Substance: linked SSB dimer with the D. radiodurans linker (SSB-LD-Drl)
